Results: patent publication US11554097B2, “Recombinant production of hybrid lipid-biopolymer materials that self-assemble and encapsulate agents” (Duke University, priority 2017, dated 2023)
Marks after values point to notes of the source that are not given here.

B1: M-ELP90A,120: myristoylated ELP: Arf2 recognition sequence fused to 120 repeats of VPGXG, X 90% alanine and 10% valine (SEQ ID NO: 34) (conjugate)
chain: MGLYASKLFSNLGAGVPGAGVPGVGVPGAGVPGAGVPGAGVPGAGVPGAGVPGAGVPGAGVPGAGVPGAGVPGVGVPGAGVPGAGVPGAGVPGAGVPGAGVPGAGVPGAGVPGAGVPGAGVPGVGVPGAGVPGAGVPGAGVPGAGVPGAGVPGAGVPGAGVPGAGVPGAGVPGVGVPGAGVPGAGVPGAGVPGAGVPGAGVPGAGVPGAGVPGAGVPGAGVPGVGVPGAGVPGAGVPGAGVPGAGVPGAGVPGAGVPGAGVPGAGVPGAGVPGVGVPGAGVPGAGVPGAGVPGAGVPGAGVPGAGVPGAGVPGAGVPGAGVPGVGVPGAGVPGAGVPGAGVPGAGVPGAGVPGAGVPGAGVPGAGVPGAGVPGVGVPGAGVPGAGVPGAGVPGAGVPGAGVPGAGVPGAGVPGAGVPGAGVPGVGVPGAGVPGAGVPGAGVPGAGVPGAGVPGAGVPGAGVPGAGVPGAGVPGVGVPGAGVPGAGVPGAGVPGAGVPGAGVPGAGVPGAGVPGAGVPGAGVPGVGVPGAGVPGAGVPGAGVPGAGVPGAGVPGAGVPGAGVPGAGVPGAGVPGVGVPGAGVPGAGVPGAGVPGAGVPGAGVPGAGVPGAGVPGY
modifications: N-terminal myristoylation
B2: ELP90A,120: non-myristoylated control, recognition sequence-ELP grown without NMT (SEQ ID NO: 34) (protein)
chain: B1 chain
B3: M-ELP100V,40: myristoylated ELP with 40 repeats of VPGXG where X is 100% valine (SEQ ID NO: 37) (conjugate)
chain: MGLYASKLFSNLGVGVPGVGVPGVGVPGVGVPGVGVPGVGVPGVGVPGVGVPGVGVPGVGVPGVGVPGVGVPGVGVPGVGVPGVGVPGVGVPGVGVPGVGVPGVGVPGVGVPGVGVPGVGVPGVGVPGVGVPGVGVPGVGVPGVGVPGVGVPGVGVPGVGVPGVGVPGVGVPGVGVPGVGVPGVGVPGVGVPGVGVPGVGVPGVGVPGVGVPG
modifications: N-terminal myristoylation
B4: M-ELP90A,80: myristoylated ELP, same composition (90% alanine, 10% valine), 80 pentapeptide repeats (SEQ ID NO: 35) (conjugate)
chain: MGLYASKLFSNLGAGVPGAGVPGVGVPGAGVPGAGVPGAGVPGAGVPGAGVPGAGVPGAGVPGAGVPGAGVPGVGVPGAGVPGAGVPGAGVPGAGVPGAGVPGAGVPGAGVPGAGVPGAGVPGVGVPGAGVPGAGVPGAGVPGAGVPGAGVPGAGVPGAGVPGAGVPGAGVPGVGVPGAGVPGAGVPGAGVPGAGVPGAGVPGAGVPGAGVPGAGVPGAGVPGVGVPGAGVPGAGVPGAGVPGAGVPGAGVPGAGVPGAGVPGAGVPGAGVPGVGVPGAGVPGAGVPGAGVPGAGVPGAGVPGAGVPGAGVPGAGVPGAGVPGVGVPGAGVPGAGVPGAGVPGAGVPGAGVPGAGVPGAGVPGAGVPGAGVPGVGVPGAGVPGAGVPGAGVPGAGVPGAGVPGAGVPGAGVPG
modifications: N-terminal myristoylation
B5: ELP90A,40: non-myristoylated control sample, 40 repeats (SEQ ID NO: 36) (protein)
chain: MGLYASKLFSNLGAGVPGAGVPGVGVPGAGVPGAGVPGAGVPGAGVPGAGVPGAGVPGAGVPGAGVPGAGVPGVGVPGAGVPGAGVPGAGVPGAGVPGAGVPGAGVPGAGVPGAGVPGAGVPGVGVPGAGVPGAGVPGAGVPGAGVPGAGVPGAGVPGAGVPGAGVPGAGVPGVGVPGAGVPGAGVPGAGVPGAGVPGAGVPGAGVPGAGVPG
B6: M-ELP90A,40: myristoylated ELP, 90% alanine, 10% valine, 40 pentapeptide repeats (SEQ ID NO: 36) (conjugate)
chain: B5 chain
modifications: N-terminal myristoylation

What was measured:
Assay type in all cases: physicochemical
[1] = Cryo-TEM imaging of self-assembled structures; details: PBS, filtered
Experimental: Cryo-transmission electron microscopy (TEM) experiments were performed at Duke University's Shared Materials Instrumentation Facility and at Thermo Fisher Scientific (Formerly FEI). Lacey holey carbon grids (Ted Pella, Redding, Calif.) were glow discharged in a PELCO EasiGlow Cleaning System (Ted Pella, Redding, Calif.). After filtering the samples, a 3 μL drop (1 mg/mL of each construct) at 25° C. (below the Tt for M-ELP constructs) was deposited onto the grid, blotted for 3 s with an offset of −3 mm, and vitrified in liquid ethane using the Vitrobot Mark III (FEI, Eindhoven, Netherlands). The sample chamber was maintained at 100% relative humidity to prevent sample evaporation. Grids were transferred to a Gatan 626 cryoholder (Gatan, Pleasanton, Calif.) and imaged with an FEI Tecnai G^2 Twin TEM (FEI, Eindhoven, Netherlands), which was operated at 80 keV.

[2] = Dynamic and static light scattering of self-assembled M-ELPs; details: for Hydrodynamic Radius, Day 0, Rh: Day 0, freshly filtered; for Hydrodynamic Radius, Day 0, Rh / Second Virial Coefficient A2 / Shape Factor, ρ, Rg/Rh: PBS; for hydrodynamic radius (Rh) by DLS: filtered samples in PBS at 25° C.; for Second Virial Coefficient A2 / Shape Factor, ρ, Rg/Rh: full Zimm plots; for Aggregation Number, Nagg, MWparticle/Munimer: partial Zimm plots, Day 0
Experimental: Characterization of myristoylated and non-myristoylated ELPs: Dynamic light scattering (DLS) studies were carried out to investigate the self-assembly of various myristoylated ELPs in aqueous solution. Prior to analysis, samples were prepared in PBS at a concentration of 50 μM, and filtered through a 0.22 μm polyvinylidene fluoride membrane (Durapore) directly into a quartz DLS cell. DLS experiments were conducted in a temperature-controlled DynaPro Microsampler (Wyatt Technologies). Measurements were obtained over a temperature range of 15 to 20° C. using 1° C. steps and at 25° C. 18 acquisitions of 5 s each were collected for every temperature point. Autocorrelation intensities at 15° C. were fitted using the regularization model and then depicted as a population size distribution histogram (FIG. 13) and intensity size distribution (FIG. 14) using Wyatt Dynamics software.
Static light scattering (SLS) studies were carried out to quantify the Rg, Rh, and Nagg of myristoylated ELPs in aqueous solution. Samples were prepared in PBS at concentration ranging from 0.5-5 mg/mL and filtered through a 0.22 μm polyvinylidene fluoride membrane (Durapore) directly into a 10 mm, disposable borosilicate glass tube (Fisher Scientific). Experiments were performed using an ALV/CGS-3 goniometer system (Germany). For M-ELP90A,120 and M-ELP90A,80, as well as for M-ELP90A,40 and M-ELP100V,40 at early time points, measurements were obtained at 25° C. for angles between 30 and 150° C. and made at 5° C. increments with 3 runs of 10 s. Smaller angles (20-45° C.) were used to measure the 40-mer ELPs at later time points, after they had matured to their larger rod-like shape. Full Zimm plots were created by conducting SLS for each construct at different concentrations ranging from 25 μM to 100 μM. These Zimm plots were created using SLS data and ALVStat software after the refractive index increment (dn/dc) was calculated (FIG. 15). These plots provided the second virial coefficient and Rg and from which shape factor was calculated (TABLE 1). Partial Zimm plots were used to calculate Nagg at 1 mg/mL.

[3] = UV-Vis turbidity, temperature-triggered LCST phase transition
Experimental: We investigated the temperature-triggered phase-transition of each construct by recording the optical density of the protein solution at 350 nm as the temperature is ramped up and down on a temperature-controlled UV-Vis spectrophotometer (Cary 300 Bio, Varian Instruments, Palo Alto, Calif.) (FIG. 10-FIG. 12). The transition temperature (T) is defined as the inflection point of the turbidity profile and was calculated as the maximum of the first derivative of OD350 versus temperature, which was determined using Igor Pro software (FIG. 10). Turbidity profiles for each sample were measured in PBS at concentrations between 12.5 and 250 μM. For the non-myristoylated control sample, ELP90A,40, the transition temperatures at these concentrations were well above 80° C. Consequently, their […] values were monitored in 1 M NaCl, which served to reduce the T into a temperature range that is experimentally accessible.
We next used UV-vis spectrophotometry to evaluate whether the lipid-ELP hybrid retained the LCST phase behavior of its parent ELP. The absorbance at 350 nm was monitored as the solution temperature was ramped up and then down at a rate of 1° C./min. […] The transition temperature (Tt) is defined as the inflection point of absorbance versus temperature, calculated as the maximum of the curve's first derivative (FIG. 2D, arrow).

[4] = DLS kinetics study of self-assembly; details: 50 μM in PBS, room temperature, after filtering
Experimental: Thus, we wanted to take more frequent light scattering measurements to track their changing size. Larger particles scatter more light, thus, we tracked intensity via DLS to monitor the size of the 40-mer M-ELPs' self-assembly.
The 40-mer M-ELPs were prepared at 50 μM in PBS and filtered directly into the instrument's quartz cell. The instrument was pre-set to room temperature and, immediately after filtering, the sample was measured periodically over 24 h for both constructs and out to 1 week for M-ELP90A,40. While M-ELP90A,40 takes 144-168 h to reach equilibrium (FIG. 17A), M-ELP100V,40 appears to do so more quickly, by 24 h after filtering (FIG. 17B).

Molecule | morphology of self-assembled structure [1] | Refractive Index Increment dn/dc [2] | Hydrodynamic Radius, Day 0, Rh [2] | hydrodynamic radius (Rh) by DLS [2] | Second Virial Coefficient A2 [2] | Shape Factor, ρ, Rg/Rh [2] | Aggregation Number, Nagg, MWparticle/Munimer [2] | suppression of Tt by myristoylation ([3]; versus unmyristoylated ELP) | time to reach equilibrium of self-assembly [4] | transition temperature (Tt) ([3]; PBS, 12.5 to 250 μM)
B1 | spherical micelles | 0.1515 cm^3 g^−1 | 22.7 nm | ~22 nm | −9.23 × 10^−9 mol dm^3 g^−2 | 0.98 | 29 | ~20 °C | – | –
B2 | – | – | – | 6.2 nm | – | – | – | – | – | –
B3 | rod-like micelles | 0.1258 cm^3 g^−1 | 80.3 nm | – | – | 1.30 | 201^b | – | ≤ 24 h | –
B4 | spherical micelles | 0.1660 cm^3 g^−1 | 31.2 nm | – | −5.58 × 10^−9 mol dm^3 g^−2 | 1.00 | 48 | – | – | –
B5 | – | – | – | – | – | – | – | – | – | above 80 °C
B6 | – | 0.1669 cm^3 g^−1 | 81.9 nm | – | −2.30 × 10^−8 mol dm^3 g^−2 | 1.29 | 137^b | – | 144 to 168 h | –
